# According to article PMC5331220:
# How the values were obtained:
# Assay in all cases: ITC; GppNHp-Rab35 (480 μM) injected in 2 μl aliquots into the C-terminal MICAL1 domain (60 μM) in the cell; 10 °C; 50 mM Tris pH 8, 150 mM NaCl, 2 mM MgCl2, 2 mM TCEP, 5% glycerol; one-site model
# [1] = molecular target: MICAL1^918–1067 WT C-terminal domain (tag cleaved) (human) (UniProt Q8TDZ2)
# [2] = molecular target: MICAL1^879–1067 (tag cleaved, for ITC) (human) (UniProt Q8TDZ2)
# [3] = molecular target: MICAL1^918–1067 mutant S1 (human) (UniProt Q8TDZ2)
# Chain of MICAL1^918–1067 WT C-terminal domain (tag cleaved) (human) (Q8TDZ2 918-1067): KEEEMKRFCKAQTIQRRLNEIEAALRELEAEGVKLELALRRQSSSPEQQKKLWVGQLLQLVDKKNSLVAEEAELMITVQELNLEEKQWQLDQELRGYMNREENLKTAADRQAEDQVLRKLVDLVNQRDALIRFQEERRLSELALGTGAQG
# Chain of MICAL1^879–1067 (tag cleaved, for ITC) (human) (Q8TDZ2 879-1067): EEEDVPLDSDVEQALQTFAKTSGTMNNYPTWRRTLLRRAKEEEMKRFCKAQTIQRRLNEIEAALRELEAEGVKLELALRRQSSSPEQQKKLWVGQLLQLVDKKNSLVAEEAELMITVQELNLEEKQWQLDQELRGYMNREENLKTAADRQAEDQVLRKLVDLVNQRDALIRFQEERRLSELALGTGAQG
substance,measurement,setting,value
"Rab35 (recombinant, for ITC and competition; Rab35^1-199 taken as the likeliest construct) (from UniProt Q15286 1-199) (natural protein)",Kd,[1],6.4 µM
same,stoichiometry N,[1],1
same,Kd,[2],13 µM
same,stoichiometry N,[3],1
